Among the data in PMC12407373, “Kindlin Regulates Mechanosensitive Activation and Adhesion Assembly of Integrin beta6” (Advanced Science, 2025) are Kd values, retold here.

Where no end group is shown, it is not given here.

The test addresses T1, full-length mouse kindlin2 (mouse, UniProt Q8CIB5 1-680).
T1 construct: full-length mouse kindlin2, cloned into pET28a with 10xHis-SUMO tag and HRV-3C site at the N-terminal; also called kindlin2 protein; source: Escherichia coli Rosetta(DE3), purified (IMAC, tag cleavage by HRV 3C, SEC); not shown: 10xHis, N-terminal, cleaved; SUMO, N-terminal, cleaved
T1 sequence (looked up): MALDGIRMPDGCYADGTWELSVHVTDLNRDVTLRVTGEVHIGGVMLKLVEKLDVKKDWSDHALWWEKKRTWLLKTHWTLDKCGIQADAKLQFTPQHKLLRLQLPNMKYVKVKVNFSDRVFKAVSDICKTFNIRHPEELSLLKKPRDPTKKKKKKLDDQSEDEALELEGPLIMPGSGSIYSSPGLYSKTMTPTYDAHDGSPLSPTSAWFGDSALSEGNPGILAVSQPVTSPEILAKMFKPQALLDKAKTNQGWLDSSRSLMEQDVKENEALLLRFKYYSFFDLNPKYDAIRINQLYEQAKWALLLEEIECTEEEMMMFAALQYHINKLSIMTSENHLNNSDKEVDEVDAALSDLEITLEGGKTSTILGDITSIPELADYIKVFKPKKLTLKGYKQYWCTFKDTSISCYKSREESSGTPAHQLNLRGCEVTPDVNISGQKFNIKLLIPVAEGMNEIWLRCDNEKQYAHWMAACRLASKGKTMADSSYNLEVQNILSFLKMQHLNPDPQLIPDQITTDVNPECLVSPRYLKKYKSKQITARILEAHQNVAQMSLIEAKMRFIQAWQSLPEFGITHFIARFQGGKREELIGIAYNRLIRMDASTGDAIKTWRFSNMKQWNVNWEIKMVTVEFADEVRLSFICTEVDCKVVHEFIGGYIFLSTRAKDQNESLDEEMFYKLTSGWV
Kind of test: MST; Monolith NT.115; FITC-labeled tail peptide constant at 10 µM, kindlin2 titrated 42.5 to 0.0013 µM; 20 mM Tris pH 7.5, 200 mM sodium chloride, 1 mM TCEP, 5% glycerol; 10-20% LED power; Kd model. As to conditions: both partners purified.

B1: FITC-labeled cytoplasmic tail of wildtype integrin β1 (peptide, UniProt P05556 752-798, looked up)
peptide: KLLMIIHDRREFAKFEKEKMNAKWDTGENPIYKSAVTTVVNPKYEGK
modifications: also: FITC label, position not given here
notes: cytoplasmic tail of integrin β1; also called cytoplasmic tail of integrin β1; integrin β tail peptide; source: synthetic peptide, synthesized by Sangon Biotech
In turn, B1 displayed a Kd of 0.42 µM.

B2: FITC-labeled cytoplasmic tail of wildtype integrin β6 (peptide, UniProt P18564 731-788, looked up)
peptide: KLLVSFHDRKEVAKFEAERSKAKWQTGTNPLYRGSTSTFKNVTYKHREKQKVDLSTDC
modifications: also: FITC label, position not given here
notes: cytoplasmic tail of integrin β6; also called cytoplasmic tail of integrin β6; integrin β tail peptide; source: synthetic peptide, synthesized by Sangon Biotech
Turning to B2, the affinity, expressed as Kd, was 26.6 µM.

One may read the Kd as the concentration at which binding is half-saturated. A lower Kd goes with a tighter complex.
